Assay results from the supplement of paper PMC10724198.
± gives the standard deviation of the averaged measurements.

test system: Saccharomyces cerevisiae; assay: protein stability index of tFT-peptide fusion (C-terminal peptide) (PSI (0-1 scale)); higher = more stable (slower turnover); conditions: genetic background: wild type; temperature: 30 C
Method: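 Multiplexed protein stability (MPS) profiling in S. cerevisiae. Random 12-aa peptides (tFT-X12 library) are fused to the C-terminus of a sfGFP-mCherry tandem fluorescent timer, after mCherry and a GGGS linker. Cells are FACS-sorted into 8 mCherry/sfGFP bins and deep-sequenced. The protein stability index (PSI) is the read-weighted bin average, scaled from 0 (unstable) to 1 (stable). Only peptides with >10 reads are reported; cells were grown at 30 °C in SC-His with glucose.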
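Note: PSI is a weighted mean of sequencing reads over stability bins, variants kept only with over 10 reads, mCherry proximal and sfGFP distal, peptide attached via GGGS linker.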

Row | Sequence | protein stability index
1 | RWCEWYDMNTII | 0.636 ± 0.02
2 | LSLPRCPKGVAH | 0.672 ± 0.055
3 | VVHGIGLIYTGG | 0.68 ± 0.041
4 | SCGCCGVLFQGV | 0.846 ± 0.2
5 | LPPPPLLIPLPT | 0.605 ± 0.062
6 | LRPPLASLRFSP | 0.78 ± 0.11
7 | FFLGAPVRQFFF | 0.582 ± 0.011
8 | IEKVKIMNKERN | 0.692 ± 0.017
9 | GGRPRGLVAGAA | 0.657 ± 0.022
10 | LVSSSPLPFSPI | 0.646 ± 0.079
11 | LLFRPTPCLPPL | 0.686 ± 0.022
12 | GVPVVCGPPPFL | 0.748 ± 0.091
13 | LKCGGVRCGSAN | 0.648 ± 0.061
14 | SPPPISPSLPPL | 0.728 ± 0.029
15 | SANSGVRHMHFW | 0.729 ± 0.058
16 | LSLSNILDYFYC | 0.685 ± 0.044
17 | LLSPLLLLASLS | 0.534 ± 0.013
18 | NLSLYFGGVLVL | 0.603 ± 0.027
19 | SRFRKSSGLLLK | 0.758 ± 0.09
20 | VKVKRCVRKVGG | 0.687 ± 0.046
21 | LCRVFAGFLSVG | 0.689 ± 0.036
22 | VGKIRWIGFGGW | 0.695 ± 0.051
23 | LIPTPPPHPPSP | 0.679 ± 0.023
24 | HHRRRRTTDVSL | 0.75 ± 0.049
25 | RTAYLLRCLTTD | 0.681 ± 0.026

Row | Sequence | protein stability index
26 | IKRIYQKKIERK | 0.762 ± 0.067
27 | GGCVGVLGGGGF | 0.659 ± 0.016
28 | RPSNPPTKSQPS | 0.665 ± 0.019
29 | VPPPLTSPSWHF | 0.6825 ± 0.0036
30 | PCLTCKARSIWL | 0.672 ± 0.033
31 | GTGPPPSPPSLP | 0.683 ± 0.091
32 | QAVPRAAHLHPL | 0.66 ± 0.11
33 | PHTLPPLLRHAP | 0.693 ± 0.015
34 | GTSVGVRRKGVK | 0.708 ± 0.033
35 | RHKVVLQPRPQV | 0.649 ± 0.039
36 | CCPLRLPRSRGY | 0.705 ± 0.055
37 | PPTFLPLPSSPP | 0.651 ± 0.079
38 | FELEQNCESATS | 0.706 ± 0.013
39 | GRGRVAAGFVAR | 0.737 ± 0.039
40 | VLLSSPSLLFFE | 0.703 ± 0.039
41 | QNSDDFLITDTY | 0.643 ± 0.1
42 | MKLWSDALNVVR | 0.607 ± 0.12
43 | IPPLNQDPFCAS | 0.678 ± 0.017
44 | LRHHARSYLPRL | 0.805 ± 0.18
45 | PNLIFHHSFSFL | 0.692 ± 0.031
46 | EQLRLQSIECGE | 0.631 ± 0.0073
47 | TKIENYKRKRAK | 0.708 ± 0.1
48 | VIRQPSSKLWIQ | 0.6559 ± 0.0057
49 | RGRGKRNDPEKR | 0.681 ± 0.036
50 | PPPPPRPRSLLS | 0.711 ± 0.063

Row | Sequence | protein stability index
51 | SPPLLPPPSLPP | 0.628 ± 0.0056
52 | KQKKAETQATQK | 0.678 ± 0.038
53 | RCSLGWKRFDWR | 0.706 ± 0.061
54 | VQRKVCTFRRSD | 0.665 ± 0.14
55 | PDPTLPTPSRPP | 0.642 ± 0.024
56 | FRHSSAVLAPGV | 0.6896 ± 0.0057
57 | LLPLLPAPRPPF | 0.691 ± 0.0063
58 | KRNEQQKNDRKK | 0.653 ± 0.046
59 | KNMNQIKKKNRE | 0.664 ± 0.061
60 | LPRERSFRLYKA | 0.739 ± 0.016
61 | SLLAGSSLPFSP | 0.696 ± 0.0074
62 | GLGGNVLRVIFA | 0.561 ± 0.021
63 | TSPSPLPPLFFT | 0.706 ± 0.0087
64 | RALSLLSLLLNR | 0.696 ± 0.022
65 | RPPVPSLLPEPT | 0.6313 ± 0.0043
66 | SPPPSVCPRFPI | 0.761 ± 0.057
67 | GASGGGRGNLEV | 0.727 ± 0.13
68 | AVTAFDMGGSRN | 0.672 ± 0.12
69 | VDLLFLMVGTSV | 0.574 ± 0.011
70 | PPHAYTSTPSLF | 0.67 ± 0.028
71 | PVSSFQHSLPWL | 0.708 ± 0.03
72 | WLRSLLKENLVR | 0.5422 ± 0.0016
73 | GREGAADGWACG | 0.652 ± 0.055
74 | WAFYFPWSSSLM | 0.726 ± 0.036
75 | SNRASVCKSGKR | 0.6768 ± 0.0017

Row | Sequence | protein stability index
76 | RLPRSPPLPSCR | 0.726 ± 0.016
77 | RCPQHCDLSVYV | 0.681 ± 0.021
78 | HGIGRDTSEHGR | 0.645 ± 0.025
79 | ETKRRQEQNIVR | 0.721 ± 0.082
80 | KKKQMREQPKNE | 0.7315 ± 0.0047
81 | DQGMSDVYPDCW | 0.662 ± 0.011
82 | KSGEHSCCRSAD | 0.602 ± 0.038
83 | PVFPPTPLSPRP | 0.571 ± 0.077
84 | PPFPPDTLPLLP | 0.746 ± 0.017
85 | TQHPQPCPLAAV | 0.712 ± 0.12
86 | LRQQTRGTIIEC | 0.703 ± 0.029
87 | GRLGSSRIVGKS | 0.692 ± 0.017
88 | VGPFRISRSFTG | 0.7174 ± 0.004
89 | AHRSIFSASSLL | 0.668 ± 0.084
90 | RGVGGRGIGFPR | 0.6826 ± 0.0058
91 | KKLKKTTNQTKK | 0.616 ± 0.022
92 | KTKEETNENRNL | 0.719 ± 0.027
93 | GKLRGTGGRAGE | 0.669 ± 0.012
94 | GTHFRPAREERV | 0.708 ± 0.039
95 | LSRGLVVSFVLK | 0.662 ± 0.014
96 | KKKSKKKNKKKE | 0.766 ± 0.11
97 | LACWAGGLGWGG | 0.772 ± 0.044
98 | LCACRMVGFRGG | 0.538 ± 0.045
99 | YALLLPRSVFQF | 0.517 ± 0.038
100 | LISVWQLDVRSG | 0.579 ± 0.0023

Row | Sequence | protein stability index
101 | LAGPYGRVTVFF | 0.67 ± 0.029
102 | AAPSTSPGPRPA | 0.652 ± 0.01
103 | RPLALHSYPCSP | 0.6771 ± 0.00072
104 | PPTPPTARPIVL | 0.677 ± 0.018
105 | QGRCHSRARMTP | 0.731 ± 0.046
106 | DKSYKTYSVKGQ | 0.6707 ± 0.0018
107 | SLRLAHSPPDEV | 0.749 ± 0.17
108 | KKKKKKYRKKKK | 0.668 ± 0.0087
109 | PHPPPTAPGPSP | 0.67 ± 0.00026
110 | RKKQYEKKSEKP | 0.689 ± 0.11
111 | KKKKYKKKRKIK | 0.74 ± 0.015
112 | WCAGLATAIQLR | 0.636 ± 0.053
113 | VAESCVIVFWLG | 0.506 ± 0.0056
114 | YSLSDVAVLAST | 0.629 ± 0.045
115 | RARVVRRWDTCG | 0.697 ± 0.086
116 | LSSFIHCLYSHC | 0.606 ± 0.035
117 | DVGGRGAGGGSA | 0.672 ± 0.0076
118 | PLRYRPPPPPPP | 0.672 ± 0.031
119 | YSLYVHPPNLYQ | 0.6604 ± 0.0015
120 | KKKANEMGKNRE | 0.715 ± 0.028
121 | YIRSKPASDQFA | 0.7093 ± 0.00062
122 | PLPPHPPPPRPL | 0.698 ± 0.035
123 | EVVFVARSGSGV | 0.654 ± 0.008
124 | WDSLGGCRARLS | 0.7 ± 0.013
125 | RGGNVDSRKMNR | 0.722 ± 0.018

Row | Sequence | protein stability index
126 | EPGREKRRIVQK | 0.679 ± 0.042
127 | PEGQRNRDAQSA | 0.7125 ± 0.0026
128 | RRCSCGFLCIDS | 0.672 ± 0.14
129 | VYPRNLPGSVPL | 0.666 ± 0.02
130 | KKMMQNKKQTEI | 0.727 ± 0.036
131 | SWICSTRSYQRE | 0.702 ± 0.044
132 | GGWFLLTRLGNW | 0.684 ± 0.035
133 | KILAVKIRRLYL | 0.532 ± 0.018
134 | LGRTFEEEKYAY | 0.767 ± 0.13
135 | CLEEVVCRVRGA | 0.643 ± 0.0096
136 | KKNKKKKKRARY | 0.707 ± 0.038
137 | VLRCVLTYGKPS | 0.673 ± 0.031
138 | PRSRPTCYSRPG | 0.702 ± 0.04
139 | EWGDLDGRGEPR | 0.74 ± 0.0075
140 | GGRVARRGAERG | 0.654 ± 0.14
141 | PPLPPPIPLRPP | 0.539 ± 0.02
142 | KMRKIRSKRLKW | 0.681 ± 0.028
143 | KLTKGKIQLHIK | 0.593 ± 0.017
144 | NIHRKLIKNERV | 0.694 ± 0.046
145 | KKGRAEKKKRRK | 0.65 ± 0.051
146 | KKKRDKKGKKKQ | 0.697 ± 0.012
147 | STGLRISPPAYM | 0.677 ± 0.0069
148 | RQLPPRAPAARG | 0.661 ± 0.028
149 | VLGVDVIQVCPI | 0.682 ± 0.018
150 | YPPREEPREDLA | 0.656 ± 0.026

Row | Sequence | protein stability index
151 | PPPLPSPLPLPP | 0.644 ± 0.033
152 | EGDRLVKEVGEE | 0.654 ± 0.12
153 | LSVLPAFYPRSP | 0.758 ± 0.045
154 | PPRPLPARRLSF | 0.753 ± 0.081
155 | RAVSGSLSFLLR | 0.721 ± 0.014
156 | GPCRICNERSLI | 0.613 ± 0.0062
157 | SRGTKAERISIG | 0.654 ± 0.013
158 | GGGVGLGGYGEG | 0.636 ± 0.055
159 | GWVWILGRGRGR | 0.637 ± 0.044
160 | VLSGAPGLIVYA | 0.602 ± 0.043
161 | IRIKKQRKEKRK | 0.734 ± 0.048
162 | YVLITGSTIPDN | 0.694 ± 0.026
163 | ASTTSYNITLEC | 0.679 ± 0.17
164 | GETGRGRRPRSQ | 0.667 ± 0.062
165 | PPLPPPHLAFLH | 0.685 ± 0.035
166 | LISNTGTKWAMI | 0.674 ± 0.053
167 | KKKNQGKKKIKK | 0.699 ± 0.085
168 | DVLFFSALKAHR | 0.6881 ± 0.003
169 | WFCRFTGGRRLL | 0.671 ± 0.044
170 | VLGSYFNGIWLF | 0.534 ± 0.019
171 | LLSGPPVPPSWS | 0.653 ± 0.19
172 | RRVNDLGPPMRN | 0.779 ± 0.092
173 | VGGGVGVPGVLG | 0.672 ± 0.012
174 | EYRKSVERLRVD | 0.687 ± 0.053
175 | SAGIRPFIQVHI | 0.653 ± 0.019

Row | Sequence | protein stability index
176 | PPLRPPAPEPSP | 0.659 ± 0.0092
177 | LMPPHPLFLSDI | 0.724 ± 0.012
178 | DSWMKRPNKGQE | 0.698 ± 0.058
179 | LFPGVHRVEDRA | 0.675 ± 0.034
180 | ASSHSFPDAPSL | 0.73 ± 0.046
181 | ERRKSKRKNENE | 0.674 ± 0.0084
182 | CCFAGFAVWSVD | 0.7 ± 0.019
183 | TRQGDLYYYLYV | 0.67 ± 0.024
184 | DLSRSPAPPAPL | 0.6706 ± 0.0014
185 | LSFTFSQLLSFP | 0.681 ± 0.16
186 | PPPPPSSRPLSN | 0.627 ± 0.079
187 | CFSFLEYCTSLP | 0.704 ± 0.012
188 | CVIIDFTLCSVI | 0.682 ± 0.14
189 | PPLPLPPLALTR | 0.722 ± 0.037
190 | LPMGTRGPAPGP | 0.73 ± 0.12
191 | RSRSIPTTLCLP | 0.655 ± 0.026
192 | LSVPPFSFTLSL | 0.807 ± 0.25
193 | TYKKAKIRKKYI | 0.6237 ± 0.0045
194 | GIHFKIHKSSSN | 0.647 ± 0.013
195 | PENKSLITSPRV | 0.628 ± 0.098
196 | TSNLRIISTWRV | 0.685 ± 0.024
